Paper doi:10.1101/2025.03.09.641110 (bioRxiv, 2025)

Target: extracellular domain of human PD-1 (Programmed cell death protein 1) (Homo sapiens, UniProt Q15116)
Assay: SPR

Chain of extracellular domain of human PD-1 (Programmed cell death protein 1) (Q15116 25-170): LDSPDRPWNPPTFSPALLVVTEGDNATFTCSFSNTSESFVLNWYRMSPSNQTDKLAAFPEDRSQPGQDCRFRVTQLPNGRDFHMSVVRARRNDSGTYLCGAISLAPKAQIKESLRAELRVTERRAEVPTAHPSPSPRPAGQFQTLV

Binder	Kd
chimeric ALX07 (murine ALX07 variable regions, IgG4 chimeric antibody) (antibody, V domains shown) VH: QVTLKESGPGILQPSQTLSLTCSFSGFSLSTSALGVGWIRQPPGKGLVWLAHIWWNDVKRSNPALKGRLTISKDTSSSQVFLNIANVDTADTATYYCARSYGNHWYFDVWGAGTTVTVSS VL: SVVMTQTPKFLLVSAGDRVTIACKASQSVSNDVAWFQQKPGQSPKLLIYYAFTRYIGVPDRFTASGYGTDFTFTISTVQAEDLAIYFCQQDYISPYTFGGGTKLEIK	1.31 nM
ALX07xh-05 (direct CDR-grafted humanized ALX07) (antibody, V domains shown) VH: QVTLKESGPALVKPTQTLTLTCTFSGFSLSTSALGVGWIRQPPGKALEWLAHIWWNDVKRSNPALKGRLTISKDTSKNQVVLTMTNMDPVDTATYYCARSYGNHWYFDVWGQGTLVTVSS VL: DIVMTQSPDSLAVSLGERATINCKASQSVSNDVAWYQQKPGQPPKLLIYYAFTRYIGVPDRFSGSGSGTDFTLTISSLQAEDVAVYYCQQDYISPYTFGQGTKLEIK	140 nM
humanized ALX07 (CDR graft) with the S67Y back mutation in the light chain alone (antibody, V domains shown) VH: QVTLKESGPALVKPTQTLTLTCTFSGFSLSTSALGVGWIRQPPGKALEWLAHIWWNDVKRSNPALKGRLTISKDTSKNQVVLTMTNMDPVDTATYYCARSYGNHWYFDVWGQGTLVTVSS VL: DIVMTQSPDSLAVSLGERATINCKASQSVSNDVAWYQQKPGQPPKLLIYYAFTRYIGVPDRFSGSGYGTDFTLTISSLQAEDVAVYYCQQDYISPYTFGQGTKLEIK	2.01 nM
